T1: TNFRSF1B-Fc (human, UniProt P20333 23-257)
T1 construct: bought; also called TNFRSF1B (R&D Systems, 726-R2-050); not shown: Fc part of the bought fusion
T1 sequence (looked up): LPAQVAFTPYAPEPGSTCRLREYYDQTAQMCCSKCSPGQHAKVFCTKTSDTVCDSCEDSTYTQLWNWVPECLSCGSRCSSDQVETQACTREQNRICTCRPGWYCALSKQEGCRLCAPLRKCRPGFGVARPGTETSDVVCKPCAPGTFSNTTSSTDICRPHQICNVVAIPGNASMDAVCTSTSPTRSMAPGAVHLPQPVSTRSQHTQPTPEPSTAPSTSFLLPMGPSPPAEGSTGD

T2: GITR-hFc-Avi (human, UniProt Q9Y5U5 26-161)
T2 construct: in-house produced; not shown: hFc and Avi part
T2 sequence: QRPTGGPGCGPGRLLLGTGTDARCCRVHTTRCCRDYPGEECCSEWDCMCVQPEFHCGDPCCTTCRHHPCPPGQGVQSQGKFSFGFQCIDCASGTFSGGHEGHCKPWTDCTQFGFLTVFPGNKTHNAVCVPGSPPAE

T3: TNFRSF1A-Fc (human, UniProt P19438 30-211, limits assumed)
T3 construct: bought; also called TNFRSF1A (R&D Systems, 372-RI-050/CF); not shown: Fc part of the bought fusion
T3 sequence (looked up): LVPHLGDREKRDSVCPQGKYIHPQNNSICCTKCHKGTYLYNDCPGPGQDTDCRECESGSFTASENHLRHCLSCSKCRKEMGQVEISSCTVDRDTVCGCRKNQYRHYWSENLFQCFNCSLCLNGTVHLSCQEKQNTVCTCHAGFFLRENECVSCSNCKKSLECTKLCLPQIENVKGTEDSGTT

T4: NGFR-Fc (human, UniProt P08138 29-250)
T4 construct: bought; also called NGFR (R&D Systems, 367-NR-050/CF); not shown: Fc part of the bought fusion
T4 sequence (looked up): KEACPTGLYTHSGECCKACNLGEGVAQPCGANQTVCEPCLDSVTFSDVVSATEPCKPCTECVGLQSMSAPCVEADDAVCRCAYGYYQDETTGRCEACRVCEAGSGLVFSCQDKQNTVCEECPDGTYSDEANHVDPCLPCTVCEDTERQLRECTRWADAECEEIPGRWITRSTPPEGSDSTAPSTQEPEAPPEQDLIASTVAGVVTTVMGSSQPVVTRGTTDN

T5: mFc-Avi (mouse, UniProt P01863 99-330 = IgG part)
T5 construct: mouse Fc domain with Avi tag; negative control in the ELISA
T5 chain: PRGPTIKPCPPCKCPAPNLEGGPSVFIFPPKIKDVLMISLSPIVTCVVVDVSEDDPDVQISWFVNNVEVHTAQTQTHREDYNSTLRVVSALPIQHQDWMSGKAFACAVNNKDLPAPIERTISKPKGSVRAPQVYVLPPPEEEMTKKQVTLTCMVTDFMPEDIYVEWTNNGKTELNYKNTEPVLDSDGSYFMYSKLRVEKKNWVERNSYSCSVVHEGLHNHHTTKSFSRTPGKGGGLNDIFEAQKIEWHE

T6: human OX40-mFc (human, UniProt P43489 29-214)
T6 construct: produced in-house; negative control in the ELISA; also called human OX40-mFc-Avi; not shown: mFc part
T6 sequence: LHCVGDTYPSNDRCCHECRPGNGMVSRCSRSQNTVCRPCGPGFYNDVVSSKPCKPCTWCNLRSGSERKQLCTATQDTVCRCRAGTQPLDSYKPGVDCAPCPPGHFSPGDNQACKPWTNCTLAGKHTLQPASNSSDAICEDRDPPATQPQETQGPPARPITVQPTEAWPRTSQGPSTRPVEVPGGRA

T7: cyno CD137 on DO11.10-cCD137 cells (cynomolgus, UniProt Q07011 24-255 (human entry))
T7 construct: full-length cyno CD137 over-expressed on DO11.10 cells; also called cell surface-expressed cyno CD137
T7 chain: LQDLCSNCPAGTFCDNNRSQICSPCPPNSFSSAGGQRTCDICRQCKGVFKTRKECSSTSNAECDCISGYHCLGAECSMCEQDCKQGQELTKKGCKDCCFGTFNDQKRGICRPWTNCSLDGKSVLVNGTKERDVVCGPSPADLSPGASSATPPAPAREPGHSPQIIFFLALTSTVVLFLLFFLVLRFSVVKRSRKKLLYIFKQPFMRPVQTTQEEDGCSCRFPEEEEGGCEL


Key:
[1] = target: T8, CD40-mFc (human, UniProt P25942 21-193); test: SPR, antigen immobilised on CM5 chip
T8 construct: in-house produced; not shown: mFc part
Protocol: (§1) Flow cell 1 was run as a blank immobilisation. The five FS20-22-49AA/FS30 mAb² were diluted to 1 μM and 1 nM in 1×HBS-EP buffer (GE Healthcare, product code BR100188), allowed to flow over the chip for 3 min and then allowed to dissociate for 4 minutes. A 30-second injection of 10 mM glycine pH 1.5 was used for regeneration. […] Binding levels were determined at the end of the association phase and compared.
(§2) Specificity was tested against the same five human TNFRSF members closely-related to CD137 (TNFRSF1A, TNFRSF1B, GITR, NGFR and CD40) plus an additional closely-related TNFRSF member, human DR6 (DR6-Fc; R&D Systems, 144-DR-100), using SPR as described in Example 3.1.

[2] = target: T1, TNFRSF1B-Fc; test: SPR, antigen immobilised on CM5 chip
Protocol: as §1, §2

[3] = target: T2, GITR-hFc-Avi; test: SPR, antigen immobilised on CM5 chip
Protocol: as §1, §2

[4] = target: T3, TNFRSF1A-Fc; test: SPR, antigen immobilised on CM5 chip
Protocol: as §1, §2

[5] = target: T4, NGFR-Fc; test: SPR, antigen immobilised on CM5 chip
Protocol: as §1, §2

[6] = target: human CD137 on primary human CD8+ T cells (human, UniProt Q07011 24-255); test: cell-based or functional assay
[7] = target: T9, streptavidin (UniProt P22629 37-163, limits assumed); test: ELISA on streptavidin plates, mAb 0.1 to 300 nM
T9 construct: negative control in the ELISA; also called Streptavidin plates (Thermo Scientific, 15500)
Protocol: (§3) Blocking solution was discarded and a dilution series of anti-CD137 mAb concentrations (0.1 to 300 nM, 3-fold dilutions) was added and incubated for 1 hour at room temperature whilst shaking at 450 rpm. Plates were washed 3× with 300 µl PBS/Tween 0.05%. Goat anti-human IgG (Fc fragment) antibody conjugated to Horseradish Peroxidase (Sigma, A0170) was diluted 1:10000 in PBS and 90 µl was added to the wells. After incubation for 1 hour at 4° C. whilst shaking at 450 rpm, plates were washed 3× with 300 µl PBS/Tween 0.05%, 100 µl TMB substrate (eBioscience, 00-4201-56) was added to each well. The reaction was stopped between 2-10 minutes after addition of TMB by the addition of 50 µl 1M sulphuric acid solution. Optical density (OD) was read at 450-630 nm in a 96-well plate reader within 30 minutes of sulphuric acid addition and analysed using GraphPad Prism software (GraphPad Software, Inc.).

[8] = target: T5, mFc-Avi; test: ELISA on streptavidin plates, mAb 0.1 to 300 nM
Protocol: as §3

[9] = target: T6, human OX40-mFc; test: ELISA on streptavidin plates, mAb 0.1 to 300 nM
Protocol: as §3

[10] = target: T10, human CD137 on DO11.10-hCD137 cells (human, UniProt Q07011 24-255); test: flow cytometry on DO11.10-hCD137 cells, GMFI vs concentration
T10 construct: full-length human CD137 over-expressed on DO11.10 cells by lentiviral transduction; also called cell surface-expressed human CD137
Protocol: (§4) Non-specific binding was also assessed by testing binding to DO11.10 cells and HEK293 cells lacking CD137 expression.
(§5) Briefly, DO11.10, HEK293, DO11.10-hCD137 or DO11.10-cCD137 suspensions were prepared in PBS containing 2% BSA (Sigma, A7906) and seeded at 4×10^6 cell/ml with 50 µl/well in V-bottomed 96-well plates (Costar, 3897). mAb dilutions (1·10^-6-100 nM, 10-fold dilutions) were prepared at 2× the final concentration in triplicate in 1×DPBS (Gibco, 14190-094). […] The cells were washed once with PBS and resuspended in 100 µl of PBS containing DAPI (Biotium, 40043) at 1 µg/ml. The cells were analysed using a Canto II flow cytometer (BD Bioscience). Dead cells were excluded and the fluorescence in the FITC channel (488 nm/530/30) was measured. The geometric mean fluorescence intensity (GMFI) values were plotted vs the log concentration of antibody and the resulting curves were fitted using the log (agonist) vs response equation in GraphPad Prism.

[11] = target: T7, cyno CD137 on DO11.10-cCD137 cells; test: flow cytometry on DO11.10-cCD137 cells, GMFI vs concentration
Protocol: as §4, §5

Sequence of human CD137 on primary human CD8+ T cells (Q07011 24-255): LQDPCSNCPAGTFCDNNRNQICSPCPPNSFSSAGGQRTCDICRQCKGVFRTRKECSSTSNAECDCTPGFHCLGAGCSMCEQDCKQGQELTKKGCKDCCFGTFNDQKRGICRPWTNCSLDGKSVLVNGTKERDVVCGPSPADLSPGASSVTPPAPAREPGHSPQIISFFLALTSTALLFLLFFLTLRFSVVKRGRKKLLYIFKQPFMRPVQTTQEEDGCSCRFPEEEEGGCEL
T10 sequence (Q07011 24-255): as above
T9 sequence (P22629 37-163 limits assumed): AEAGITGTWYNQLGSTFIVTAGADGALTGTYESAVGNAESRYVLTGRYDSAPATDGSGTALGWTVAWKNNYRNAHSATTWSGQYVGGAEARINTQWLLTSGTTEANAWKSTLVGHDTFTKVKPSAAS
T8 sequence (P25942 21-193): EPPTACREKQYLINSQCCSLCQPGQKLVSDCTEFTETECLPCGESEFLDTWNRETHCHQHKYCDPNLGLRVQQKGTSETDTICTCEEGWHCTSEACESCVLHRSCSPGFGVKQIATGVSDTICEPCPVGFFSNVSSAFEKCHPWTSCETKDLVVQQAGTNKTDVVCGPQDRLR

Row | binding result [1] | binding result [2] | binding result [3] | binding result [4] | binding result [5] | Activity of non-crosslinked mAbs at 100 nM (hIL-2 pg/ml) [6] [pg/mL] | EC50 (nM), hIL-2 release, primary human CD8+ T cell activation assay, crosslinked mAb [6] [nM] | Emax (hIL-2 pg/ml), crosslinked mAb [6] [pg/mL] | binding result [7] | binding result [8] | binding result [9] | EC50 [10] [nM] | EC50 [11] [nM] | Binder
1 | binds | binds | binds | binds | binds | 449 | 8.5 | 11100 | no binding (tested: 300 nM) | no binding (tested: 300 nM) | no binding (tested: 300 nM) | 0.15 | 0.31 | G1AA/FS30-15 (antibody, human IgG1, kappa, L234A L235A, V domains shown, human IgG1 with LALA mutation in CH2; also called FS30-15 mAb) VH: EVQLLESGGGLVQPGGSLRLSCAASGFTFSGSGMSWVRQAPGKGLEWVSIIYSTNGDTDYADSVKGRFTISRDNSKNTLYLQMNSLRAEDTAVYYCARDFYDIANYYAFDYWGQGTLVTVSS VL: EIVLTQSPGTLSLSPGERATLSCRASQSVSSSYLAWYQQKPGQAPRLLIYGASSRATGIPDRFSGSGSGTDFTLTISRLEPEDFAVYYCQQAYYDPITFGQGTKVEIKR
2 |  |  |  |  |  | 497 | 5.4 | 8560 | no binding (tested: 300 nM) | no binding (tested: 300 nM) | no binding (tested: 300 nM) | 0.32 | 0.57 | G1AA/FS30-10 (antibody, human IgG1, kappa, L234A L235A, V domains shown, human IgG1 with LALA mutation in CH2; also called FS30-10 mAb) VH: EVQLLESGGGLVQPGGSLRLSCAASGFTFSSYDMSWVRQAPGKGLEWVSDIDPTGSKTDYADSVKGRFTISRDNSKNTLYLQMNSLRAEDTAVYYCARDLMVYGFDYWGQGTLVTVSS VL: EIVLTQSPGTLSLSPGERATLSCRASQSVSSSYLAWYQQKPGQAPRLLIYGASSRATGIPDRFSGSGSGTDFTLTISRLEPEDFAVYYCQQSYSYPVTFGQGTKVEIKR
